Square brackets hold non-standard residues; d marks the D form. Ends that are not written are not given here. * marks the point of attachment. Biotin = O=C1N[C@H]2[C@H](CS[C@H]2CCCCC(=O)*)N1; pY = N[C@@H](Cc1ccc(OP(=O)(O)O)cc1)C(=O)O; Ahx = NCCCCCC(=O)O
Columns and labels:
[1] = target: fluorescein-ahx-ahx-EPQpYEEIPIYL; experiment: fluorescence polarisation
[2] = target: fluorescein-ahx-ahx-GGpYGG; experiment: fluorescence polarisation
[3] = target: biotin-ahx-ahx-EPQpYEEIPIYL; experiment: BLI
[4] = target: Fyn SH2 variant V3 (T3S/T4W/A5G), His-tag protein (human); experiment: ELISA
[5] = target: Fyn SH2 variant V17 (T4N/A5S/K8L), His-tag protein (human); experiment: ELISA
[6] = target: Fyn SH2 variant V24 (T3S/T4S/S6A/K8L), His-tag protein (human); experiment: ELISA
[7] = target: 9 of the 22 variants that have the K8L mutation (His-tag proteins); experiment: ELISA
[8] = target: Fyn SH2 triple mutant superbinder (T4V/S6A/K8L), His-tag protein (human); experiment: ELISA
[9] = target: Fyn SH2 variant V13 (T3S/T4R/S6A/K8L), His-tag protein (human); experiment: ELISA
[10] = target: Fyn SH2 variant V10 (T4V/K8L), His-tag protein (human); experiment: ELISA

| Molecule | Kd [1] [nM] | Kd [2] [nM] | Kd [3] [nM] | koff [3] [s⁻¹] | further results |
| --- | --- | --- | --- | --- | --- |
| Fyn SH2 variant V17 (T4N/A5S/K8L), His-tag protein (designed binder) | < 40 |  |  |  | fold affinity increase over the wild type Fyn SH2 domain [1]: 4 fold; fold weaker than the triple mutant [1]: 4 fold |
| Fyn SH2 triple mutant superbinder (T4V/S6A/K8L), His-tag protein (designed binder) | 20 | 680 | 55 | 0.000888 | kon [3]: 16300 M⁻¹ s⁻¹ |
| Fyn SH2 variant V24 (T3S/T4S/S6A/K8L), His-tag protein (designed binder) | 23 | 2570 |  |  |  |
| wild type human Fyn SH2 domain (Cys-less), His-tag protein (from UniProt P06241 149-246) (domain or fragment) | 327 |  | 154 | 0.01 | kon [3]: 64800 M⁻¹ s⁻¹ |
| Fyn SH2 variant V10 (T4V/K8L), His-tag protein (designed binder) | 32 | 2700 |  |  |  |
| Fyn SH2 variant V13 (T3S/T4R/S6A/K8L), His-tag protein (designed binder) | 12 | 620 |  |  |  |
| Fyn SH2 variant V3 (T3S/T4W/A5G), His-tag protein (designed binder) | 38 | 1630 | 55 | 0.000463 |  |
| {Biotin-Ahx-Ahx}-EPQ[pY]EEIPIYL [biotin-ahx-ahx-EPQpYEEIPIYL] |  |  |  |  | EC50 [4]: 15 nM; EC50 [5]: < 200 nM; EC50 [6]: < 200 nM; EC50 [7]: 21 to 500 nM; EC50 [8]: 21 nM; EC50 [9]: < 200 nM; EC50 [10]: 175 nM |
